Substrate: NC(=O)c1ccc[n+]([C@@H]2O[C@H](COP(=O)(O)OP(=O)(O)OC[C@H]3O[C@@H](n4cnc5c(N)ncnc54)[C@H](O)[C@@H]3O)[C@@H](O)[C@H]2O)c1
Assay: purified protein
Type: biochemical, Hydrogenophaga pseudoflava
Conditions: H2-saturated buffer, 50 mM Tris-HCl, no additional salt, pH 7, 30 °C, 1 mM TCEP, 1 μM FMN, kcat apparent

B1: HpSH (soluble hydrogenase from Hydrogenophaga pseudoflava, HoxFUYH) (Hydrogenophaga pseudoflava) (protein)
chain: MTAFDQPSALHAADAVLARWQHDPHALVQVLRETQAQTHWLPRELLAHIAAALRLTTAHVEGVASFYRFFHLRPVGRVHVLFSDNITDRMAGSDALMARLCARLGVAPGQVDAQGRFCVDRCSCTGLCDQGPALLVNHHQVVTRLDAGRVDQLAERLLAGVPPEDWPADWFAVEDHVRRADVLLQGLPADAPSLPAVLSRTPAELLAEVERSGLRGRGGAGFPTARKWRACAEADAPDGQRCVVCNADEGEPGTFKDRVLLGRHADELFDGMTLAARAIGAQTGLVYLRGEYRFLLPQLEAVLQRRRANGLLGRNAGGVAGFDFDIAIHLGAGAYVCGEESALIESLEGQRGTPRIRPPFPVQRGYLGRPTVVNNVETLVAVAHIARRGGAWWAGLGTPESTGTKIHSVSGDCERPGLYEYPLGTPLAQILADCGARNAQAVQVGGPSGSCVPASGFHRAIAFEDLPSAGALMVFDQTRDLFEVARHFARFFAHESCGLCTPCRVGTELVVRRLDKLAHERGAGRGSAFDIARLQELDALLHSGTHCGLGVSACNPLRDTLAHFGQAYAQRSTAAQFQPGIDLDAELSSARRATGRQDRGAHLNTEHGA
notes: full-length HoxFUYH heterotetramer, N-terminal Strep-tag on HoxF, coexpressed with endopeptidase HoxW (HoxH C-terminally processed), homologous expression in H. pseudoflava from pOCEx1; no HoxI; preparation has excess HoxF; with NAD-reducing hydrogenase HoxS subunit gamma; NAD-reducing hydrogenase HoxS subunit delta; NAD-reducing hydrogenase HoxS subunit beta
Km: 400 ± 140 µM
kcat: 137 ± 20 s⁻¹

Source: publication PMC12809855, “Biochemical and Mechanistic Insights into O2 Scavenging and Stability of the Soluble Hydrogenase from Hydrogenophaga pseudoflava” (ACS Omega, 2025)
